5 molecules from patent publication US20170015742A1 (published 2017) can be followed below.

Sequences and labels used below:
T1: Recombinant human FcγRIIa R131, 6xHis-tagged (human, UniProt P12318 36-218, limits assumed)
T1 construct: Captured through its 6xHis tag
T1 sequence: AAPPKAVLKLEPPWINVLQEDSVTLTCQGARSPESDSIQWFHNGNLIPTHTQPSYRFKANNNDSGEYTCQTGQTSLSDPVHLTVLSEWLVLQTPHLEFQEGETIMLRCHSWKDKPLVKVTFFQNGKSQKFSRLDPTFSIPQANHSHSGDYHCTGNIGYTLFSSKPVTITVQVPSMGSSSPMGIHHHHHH

T2: Recombinant human FcγRIIa H131, 6xHis-tagged (human, UniProt P12318 36-218, limits assumed)
T2 construct: Captured through its 6xHis tag
T2 sequence: T1 sequence with R132H

T3: Recombinant human FcγRIIb, 6xHis-tagged (human, UniProt P31994 46-217, limits assumed)
T3 construct: Captured through its 6xHis tag; also called huFcRIIb
T3 sequence: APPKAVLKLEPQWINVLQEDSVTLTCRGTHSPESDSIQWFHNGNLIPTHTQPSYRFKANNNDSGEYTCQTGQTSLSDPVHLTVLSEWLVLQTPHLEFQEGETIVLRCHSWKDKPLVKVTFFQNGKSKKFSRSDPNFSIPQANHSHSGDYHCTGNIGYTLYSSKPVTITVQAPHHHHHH

T4: Recombinant rat FcRn (rat, UniProt P13599 23-298, limits assumed)
T4 construct: FcRn is normally a heterodimer with beta-2-microglobulin
T4 sequence (looked up) 1: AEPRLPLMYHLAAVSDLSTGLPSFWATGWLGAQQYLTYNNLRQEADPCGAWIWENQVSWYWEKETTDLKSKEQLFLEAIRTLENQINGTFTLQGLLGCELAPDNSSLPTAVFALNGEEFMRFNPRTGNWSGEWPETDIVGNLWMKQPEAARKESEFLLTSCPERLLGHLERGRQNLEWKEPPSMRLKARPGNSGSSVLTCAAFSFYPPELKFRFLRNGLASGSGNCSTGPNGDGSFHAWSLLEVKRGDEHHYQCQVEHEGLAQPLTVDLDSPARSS
T4 sequence (looked up) 2: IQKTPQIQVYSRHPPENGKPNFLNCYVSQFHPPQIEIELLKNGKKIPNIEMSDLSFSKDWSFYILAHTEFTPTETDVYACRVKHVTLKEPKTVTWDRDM

B1: 4G8.3-SL-9E8.4(g) (PR-1572105), anti-VEGF-A/anti-PDGF-BB DVD-Ig, hu IgG1/k L234A L235A H435A (bispecific antibody)
heavy: EVQLVQSGSELKKPGASVKVSCKASGYTFTNYGMYWVRQAPGQGLEWMGWINTETGKPTYADDFKGRFVFSLDTSVSTAYLQISSLKAEDTAVYYCARTNYYYRSYIFYFDYWGQGTMVTVSSASTKGPEVTLRESGPALVKPTQTLTLTCTFSGFSLSTYGMGVGWIRQPPGKALEWLANIWWDDDKYYNPSLKNRLTISKDTSKNQVVLTMTNMDPVDTATYYCARIESIGTTYSFDYWGQGTMVTVSSASTKGPSVFPLAPSSKSTSGGTAALGCLVKDYFPEPVTVSWNSGALTSGVHTFPAVLQSSGLYSLSSVVTVPSSSLGTQTYICNVNHKPSNTKVDKKVEPKSCDKTHTCPPCPAPEAAGGPSVFLFPPKPKDTLMISRTPEVTCVVVDVSHEDPEVKFNWYVDGVEVHNAKTKPREEQYNSTYRVVSVLTVLHQDWLNGKEYKCKVSNKALPAPIEKTISKAKGQPREPQVYTLPPSREEMTKNQVSLTCLVKGFYPSDIAVEWESNGQPENNYKTTPPVLDSDGSFFLYSKLTVDKSRWQQGNVFSCSVMHEALHNAYTQKSLSLSPGK
light: DTVLTQSPATLSLSPGERATLSCRASESVSTHMHWYQQKPGQAPRLLIYGASNLESGVPARFSGSGSGTDFTLTISSLEPEDFAVYFCQQSWNDPFTFGQGTKLEIKRTVAAPSVFIFPPEFVLTQSPGTLSLSPGERATLSCERSSGDIGDSYVSWYQQKPGQAPRLVIYADDQRPSGIPDRFSGSGSGTDFTLTISRLEPEDFAVYYCQSYDINIDIVFGGGTKVEIKRTVAAPSVFIFPPSDEQLKSGTASVVCLLNNFYPREAKVQWKVDNALQSGNSQESVTEQDSKDSTYSLSSTLTLSKADYEKHKVYACEVTHQGLSSPVTKSFNRGEC
notes: also called hu VEGF 4G8.3-SL-hu PDGF 9E8.4 (germline) [hu IgG1/k]; LALA H435A
B2: 4G8.3-SL-9E8.4 (PR-1569579), anti-VEGF-A/anti-PDGF-BB DVD-Ig, hu IgG1/k mut(234,235) H435A (bispecific antibody)
heavy: B1 heavy
light: B1 light with R231G
notes: also called hVEGF 4G8.3-SL-hPDGF 9E8.4 [hu IgG1/k] mut(234, 235) H435A
B3: 4G8.3-GS-9E8.4(g) (PR-1572102), anti-VEGF-A/anti-PDGF-BB DVD-Ig, hu IgG1/k L234A L235A H435A (bispecific antibody)
heavy: EVQLVQSGSELKKPGASVKVSCKASGYTFTNYGMYWVRQAPGQGLEWMGWINTETGKPTYADDFKGRFVFSLDTSVSTAYLQISSLKAEDTAVYYCARTNYYYRSYIFYFDYWGQGTMVTVSSGGGGSGGGGSEVTLRESGPALVKPTQTLTLTCTFSGFSLSTYGMGVGWIRQPPGKALEWLANIWWDDDKYYNPSLKNRLTISKDTSKNQVVLTMTNMDPVDTATYYCARIESIGTTYSFDYWGQGTMVTVSSASTKGPSVFPLAPSSKSTSGGTAALGCLVKDYFPEPVTVSWNSGALTSGVHTFPAVLQSSGLYSLSSVVTVPSSSLGTQTYICNVNHKPSNTKVDKKVEPKSCDKTHTCPPCPAPEAAGGPSVFLFPPKPKDTLMISRTPEVTCVVVDVSHEDPEVKFNWYVDGVEVHNAKTKPREEQYNSTYRVVSVLTVLHQDWLNGKEYKCKVSNKALPAPIEKTISKAKGQPREPQVYTLPPSREEMTKNQVSLTCLVKGFYPSDIAVEWESNGQPENNYKTTPPVLDSDGSFFLYSKLTVDKSRWQQGNVFSCSVMHEALHNAYTQKSLSLSPGK
light: DTVLTQSPATLSLSPGERATLSCRASESVSTHMHWYQQKPGQAPRLLIYGASNLESGVPARFSGSGSGTDFTLTISSLEPEDFAVYFCQQSWNDPFTFGQGTKLEIKRGGSGGGGSGEFVLTQSPGTLSLSPGERATLSCERSSGDIGDSYVSWYQQKPGQAPRLVIYADDQRPSGIPDRFSGSGSGTDFTLTISRLEPEDFAVYYCQSYDINIDIVFGGGTKVEIKRTVAAPSVFIFPPSDEQLKSGTASVVCLLNNFYPREAKVQWKVDNALQSGNSQESVTEQDSKDSTYSLSSTLTLSKADYEKHKVYACEVTHQGLSSPVTKSFNRGEC
notes: also called 4G8.3-GS(9)-9E8.4 (g); hu VEGF 4G8.3-GS-hu PDGF 9E8.4 (germline) [hu IgG1/k]; LALA H435A
B4: 4G8.3-GS-9E8.4 (PR-1569574), anti-VEGF-A/anti-PDGF-BB DVD-Ig, hu IgG1/k mut(234,235) H435A (bispecific antibody)
heavy: B3 heavy
light: B3 light with R228G
notes: also called hVEGF 4G8.3-GS-hPDGF 9E8.4 [hu IgG1/k] mut(234, 235) H435A
B5: chBEW-9D2 (antibody, human IgG1, kappa, L234A L235A, V domains shown)
VH: QIQLVQSGPELKKPGESVKISCKASGYTFTNYGMYWVKLAPGQGLQYLGWINTETGKPTYADDFKGRFVFFLETSASTAYLQINNLRNEDMATYFCARPSDYYDGFWFAYWGQGTLVTVSS
VL: DTVLTQSPALTVSPGERVSISCRASEWVNSYMHWYQQNPGQQPKLLIYKASNLASGVPARFSGSGSGTDFTLTLDPVEADDTATYFCQQSWNDPLTFGSGTKLEIKR

Substitutions are numbered along the chain they refer to. Names may count otherwise.

Sequence of Human VEGF-A 165 (P15692 other isoform, or with tags, fused parts or gaps): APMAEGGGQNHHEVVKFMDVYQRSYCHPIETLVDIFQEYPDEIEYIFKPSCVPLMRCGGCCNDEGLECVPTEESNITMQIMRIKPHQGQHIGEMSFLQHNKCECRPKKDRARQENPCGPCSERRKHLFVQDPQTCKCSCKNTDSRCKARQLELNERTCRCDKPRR

The first test deals with T5, Recombinant human FcγRIIIa V158, 6xHis-tagged (human, UniProt P08637 17-208, limits assumed).
T5 construct: Captured through its 6xHis tag; also called huFcRIIIa 158V
T5 sequence (P08637 other isoform, or with tags, fused parts or gaps limits assumed): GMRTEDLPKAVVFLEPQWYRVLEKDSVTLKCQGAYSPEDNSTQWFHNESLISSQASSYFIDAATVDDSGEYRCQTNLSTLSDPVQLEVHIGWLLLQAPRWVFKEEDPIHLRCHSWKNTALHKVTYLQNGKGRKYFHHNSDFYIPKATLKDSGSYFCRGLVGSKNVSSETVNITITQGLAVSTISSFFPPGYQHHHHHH
The test can be described thus: Biacore SPR; His-tagged huFcγRIIIa 158V captured on anti-6xHis antibody, DVD-Ig injected; steady state fit. As for the experimental part: (§1) A CM5 chip (GE Healthcare, Pittsburgh, Pa.) with mouse anti-6×His antibodies (“6×His” disclosed as SEQ ID NO: 405) that were directly immobilized on the chip via amine coupling according to the GE Healthcare protocol to the density of 10000RU (all flow cells) was used for experiments. Human FcγRs were captured on flow cells 2, 3 and 4. Flow cell 1 was used as a reference surface. HBS-EP+ was used as the running buffer. […] The chip surfaces were regenerated with an injection of 10 mM glycine pH 1.5 at a flow rate of 100 μL/minute over all four flow cells after each cycle.
The binding of DVD-Ig molecules to FcRn from various species and the binding of DVD-Ig molecules to various FcγRs were characterized by Biacore using the method described in Example 1.2.
(Surface plasmon resonance follows binding to a sensor surface in real time, without labels.)
As a reminder, the Kd is the free concentration of one partner at which half of the binding sites on the other are occupied at equilibrium, for simple one-to-one binding. Regarding B1, the Kd is 6.2 µM.
Same read-out and setting: the figure for B2 is 12 µM.
Still for that read-out and setting: under B3 stands 7.4 µM; under B4, 16 µM.

For another test, the target named is T1, Recombinant human FcγRIIa R131, …. Put plainly: Biacore SPR; His-tagged human FcγR captured on anti-6xHis antibody, DVD-Ig injected. As for the experimental part: as §1
For B1, the binding result was “no binding (tested: DVD-Ig 31.25 to 4000 nM)”.
On the same count and under the same terms, the entry for B2 is “no binding (tested: DVD-Ig 31.25 to 4000 nM)”.
Turning to B3, the binding result is recorded as “no binding (tested: DVD-Ig 31.25 to 4000 nM)”.
As to B4, the binding result was “no binding (tested: DVD-Ig 31.25 to 4000 nM)”.

In another test the target is T6, Recombinant human FcγRIIIa F158, 6xHis-tagged (human, UniProt P08637 17-208, limits assumed).
T6 construct: Captured through its 6xHis tag
T6 sequence (P08637 other isoform, or with tags, fused parts or gaps limits assumed): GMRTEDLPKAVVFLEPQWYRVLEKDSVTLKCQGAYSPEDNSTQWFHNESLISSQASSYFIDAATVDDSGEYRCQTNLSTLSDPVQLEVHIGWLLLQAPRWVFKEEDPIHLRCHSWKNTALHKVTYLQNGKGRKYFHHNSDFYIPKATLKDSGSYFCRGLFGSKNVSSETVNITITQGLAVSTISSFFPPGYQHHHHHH
The description is as above. As for the experimental part: as §1
Consider B1, for which the binding result is recorded as “no binding (tested: DVD-Ig 31.25 to 4000 nM)”.
On the same count and under the same terms, the entry for B2 is “no binding (tested: DVD-Ig 31.25 to 4000 nM)”.
The same measure, in the same setting: the entry for B3 is “no binding (tested: DVD-Ig 31.25 to 4000 nM)”; for B4 it is “no binding (tested: DVD-Ig 31.25 to 4000 nM)”.

For the next test, the target named is T2, Recombinant human FcγRIIa H131, …. Described as above. On the procedure: as §1
As to B1, the binding result is listed as “no binding (tested: DVD-Ig 31.25 to 4000 nM)”.
In the case of B2, the binding result is reported as “no binding (tested: DVD-Ig 31.25 to 4000 nM)”.
Take B3: the binding result is “no binding (tested: DVD-Ig 31.25 to 4000 nM)”.
Same read-out and setting: the entry for B4 is “no binding (tested: DVD-Ig 31.25 to 4000 nM)”.

A further test concerns the target T3, Recombinant human FcγRIIb, 6xHis-tagged. Described as above. On the procedure: as §1
As to B1, the binding result was “no binding (tested: DVD-Ig 31.25 to 4000 nM)”.
On the same count and under the same terms, the entry for B2 is “no binding (tested: DVD-Ig 31.25 to 4000 nM)”.
Still for that read-out and setting: under B3 stands “no binding (tested: DVD-Ig 31.25 to 4000 nM)”; under B4, “no binding (tested: DVD-Ig 31.25 to 4000 nM)”.

The next test concerns the target Human VEGF-A 165 (human, UniProt P15692 207-395). The test can be described thus: cell-based or functional assay.
On to B5, for which the “huVEGF-A165 Neutralization Potency in HMVEC-d cells” value came to 0.00215 µM.

In a further test the target is T4, Recombinant rat FcRn. Put plainly: Biacore SPR; DVD-Ig immobilised by amine coupling, recombinant FcRn injected; 1:1 binding fit. On the procedure:
Human, cynomolgus, mouse, rat and rabbit recombinant FcRns were injected over all the flow cells at a flow rate of 50 μL/minute for 1 minute at a concentrations range of from 2.7 to 6000 nM (three fold serial dilution), followed by a 2 minute dissociation time. The surfaces were regenerated with an injection of 10 mM HCl at 100 μL/minute for 2 seconds followed by an injection of HBS-EP+, pH 7.4, at a flow rate of 50 μL/minute for 30 seconds over all four flow cells. Samples were prepared and run in two running buffer systems, pH 6.0 MES-EP+, and pH […]. Recombinant human FcγRIIIa V158 and rat and mouse FcRn data were fitted to 1:1 kinetic model. Recombinant human FcγRIIa R131 and FcγRIIa H131, FcγRIIIa F158, and recombinant human, cynomolgus and rabbit FcRn binding data were fitted to a steady state affinity model. Biacore T200 Evaluation Software version 2.0 was used to fit all the data.
On to B1, for which the binding result is listed as “no binding (tested: FcRn 2.7 to 6000 nM)”.
The same measure, in the same setting: the entry for B2 is “no binding (tested: FcRn 2.7 to 6000 nM)”; for B3 it is “no binding (tested: FcRn 2.7 to 6000 nM)”.
The same measure, in the same setting: under B4 stands “no binding (tested: FcRn 2.7 to 6000 nM)”.
